# According to US20230125550A1 (ARCELLX, published 2023):
# T1: AFP p26 (human, UniProt P02771 381-609)
# T1 construct: The construct used is not described
# T1 sequence: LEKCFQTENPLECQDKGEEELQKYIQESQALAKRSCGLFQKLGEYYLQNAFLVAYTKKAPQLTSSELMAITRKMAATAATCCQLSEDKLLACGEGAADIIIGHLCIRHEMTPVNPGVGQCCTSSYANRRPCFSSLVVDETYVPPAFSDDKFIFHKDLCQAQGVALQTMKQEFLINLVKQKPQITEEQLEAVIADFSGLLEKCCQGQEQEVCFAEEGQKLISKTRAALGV
# B1: SEQ ID NO 869 (designed binder)
# chain: MGSWMVFKQDLAEIKANLEALGGSEAELADFEFAIAWFEYELQWYKGKGNPEVEALRKEAAAIRDELQAYRHN
# B2: SEQ ID NO 868 (designed binder)
# chain: MGSWIHFKNDLAVIKDELEALGGSEAELARFEIMIAWFEDALQWYKGKGNPEVEALRKEAAAIRDELQAYRHN
# B3: SEQ ID NO 835 (designed binder)
# chain: MGSWKLFKYELAWIKWRLEALGGSEAELADFEASIAQFEKYLQTYKGKGNPEVEALRKEAAAIRDELQAYRHN
# B4: SEQ ID NO 836 (designed binder)
# chain: MGSWYLFKNELAWIKWRLEALGGSEAELADFEMVIAMFEDHLQEYKGKGNPEVEALRKEAAAIRDELQAYRHN
# B5: SEQ ID NO 847 (designed binder)
# chain: MGSWWVFKKTLAEIKWTLEALGGSEAELAYFEAEIAFFEFILQQYKGKGNPEVEALRKEAAAIRDELQAYRHN
# B6: SEQ ID NO 839 (designed binder)
# chain: MGSWTLFKWDLAFIKWQLEALGGSEAELAWFEYEIAAFEDSLQNYKGKGNPEVEALRKEAAAIRDELQAYRHN
# B7: SEQ ID NO 840 (designed binder)
# chain: MGSWILFKEDLAFIKWQLEALGGSEAELAWFETTIANFESDLQKYKGKGNPEVEALRKEAAAIRDELQAYRHN
# B8: SEQ ID NO 871 (designed binder)
# chain: MGSWHSFKQDLAYIKYLLEALGGSEAELAQFEELIAFFEYYLQTYKGKGNPEVEALRKEAAAIRDELQAYRHN
# B9: SEQ ID NO 838 (designed binder)
# chain: MGSWMYFKSHLAWIKWELEALGGSEAELAFFEDNIAQFEYWLQLYKGKGNPEVEALRKEAAAIRDELQAYRHN
# B10: SEQ ID NO 872 (designed binder)
# chain: MGSWVVFKSSLAQIKILLEALGGSEAELAIFEVKIAHFEQELQEYKGKGNPEVEALRKEAAAIRDELQAYRHN
# B11: SEQ ID NO 873 (designed binder)
# chain: MGSWDQFKNSLASIKRVLEALGGSEAELAIFEVKIAHFEHFLQQYKGKGNPEVEALRKEAAAIRDELQAYRHN
# B12: SEQ ID NO 843 (designed binder)
# chain: MGSWYIFKQELASIKLSLEALGGSEAELAHFEAEIAWFEWWLQWYKGKGNPEVEALRKEAAAIRDELQAYRHN
# B13: SEQ ID NO 844 (designed binder)
# chain: MGSWVRFKTELAYIKESLEALGGSEAELAMFESEIAIFEHSLQTYKGKGNPEVEALRKEAAAIRDELQAYRHN
# B14: SEQ ID NO 870 (designed binder)
# chain: MGSWKNFKLELALIKSKLEALGGSEAELAQFEADIAFFEWSLQWYKGKGNPEVEALRKEAAAIRDELQAYRHN
# B15: SEQ ID NO 855 (designed binder)
# chain: MGSWTHFKEDLAHIKDRLEALGGSEAELAAFELDIAWFEFMLQYYKGKGNPEVEALRKEAAAIRDELQAYRHN
# B16: SEQ ID NO 857 (designed binder)
# chain: MGSWYTFKGSLAEIKNRLEALGGSEAELAMFESDIAWFEFMLQFYKGKGNPEVEALRKEAAAIRDELQAYRHN
# B17: SEQ ID NO 858 (designed binder)
# chain: MGSWFTFKDDLAQIKNRLEALGGSEAELANFEMSIAWFEFMLQYYKGKGNPEVEALRKEAAAIRDELQAYRHN
# B18: SEQ ID NO 850 (designed binder)
# chain: MGSWIIFKTDLARIKNYLEALGGSEAELATFERDIAWFEFMLQIYKGKGNPEVEALRKEAAAIRDELQAYRHN
# B19: SEQ ID NO 865 (designed binder)
# chain: MGSWSVFKDDLAQIKDRLEALGGSEAELAQFELDIAWFEYVLQFYKGKGNPEVEALRKEAAAIRDELQAYRHN
# B20: SEQ ID NO 863 (designed binder)
# chain: MGSWEIFKDDLASIKKVLEALGGSEAELALFESDIAWFELMLQYYKGKGNPEVEALRKEAAAIRDELQAYRHN
# B21: SEQ ID NO 862 (designed binder)
# chain: MGSWSIFKQDLADIKDSLEALGGSEAELAMFEMDIAWFEHTLQYYKGKGNPEVEALRKEAAAIRDELQAYRHN
# B22: SEQ ID NO 861 (designed binder)
# chain: MGSWSYFKEDLANIKSSLEALGGSEAELAWFESSIAWFEHTLQYYKGKGNPEVEALRKEAAAIRDELQAYRHN
# B23: SEQ ID NO 856 (designed binder)
# chain: MGSWYYFKERLAAIKDRLEALGGSEAELAIFEADIAWFEFMLQYYKGKGNPEVEALRKEAAAIRDELQAYRHN
# B24: SEQ ID NO 854 (designed binder)
# chain: MGSWFVFKEDLAGIKFILEALGGSEAELAMFETDIAWFEYMLQYYKGKGNPEVEALRKEAAAIRDELQAYRHN
# B25: SEQ ID NO 859 (designed binder)
# chain: MGSWVLFKQDLAMIKQRLEALGGSEAELAMFEYDIAWFEHMLQYYKGKGNPEVEALRKEAAAIRDELQAYRHN
# B26: SEQ ID NO 848 (designed binder)
# chain: MGSWVYFKDHLAEIKSQLEALGGSEAELALFEYDIAWFEFILQYYKGKGNPEVEALRKEAAAIRDELQAYRHN
# B27: SEQ ID NO 864 (designed binder)
# chain: MGSWSIFKDDLAVIKERLEALGGSEAELAHFEQDIAWFEHLLQYYKGKGNPEVEALRKEAAAIRDELQAYRHN
# B28: SEQ ID NO 851 (designed binder)
# chain: MGSWMHFKQDLAEIKGYLEALGGSEAELAIFEMDIAWFEYMLQYYKGKGNPEVEALRKEAAAIRDELQAYRHN
# B29: SEQ ID NO 860 (designed binder)
# chain: MGSWVEFKRDLANIKQRLEALGGSEAELAQFEMQIAWFEHTLQYYKGKGNPEVEALRKEAAAIRDELQAYRHN
# B30: SEQ ID NO 852 (designed binder)
# chain: MGSWQIFKQDLAAIKDYLEALGGSEAELAIFEFDIAWFEHMLQWYKGKGNPEVEALRKEAAAIRDELQAYRHN
# B31: SEQ ID NO 849 (designed binder)
# chain: MGSWVYFKHRLAEIKDQLEALGGSEAELAEFETDIAWFEWMLQYYKGKGNPEVEALRKEAAAIRDELQAYRHN
# B32: SEQ ID NO 866 (designed binder)
# chain: MGSWAVFKDSLAHIKDVLEALGGSEAELALFEMDIAWFEYVLQDYKGKGNPEVEALRKEAAAIRDELQAYRHN
# B33: SEQ ID NO 853 (designed binder)
# chain: MGSWLAFKEDLAHIKSILEALGGSEAELAEFEHDIAWFEYMLQYYKGKGNPEVEALRKEAAAIRDELQAYRHN
# B34: SEQ ID NO 845 (designed binder)
# chain: MGSWYLFKTELAAIKYRLEALGGSEAELASFEYEIAWFEHILQFYKGKGNPEVEALRKEAAAIRDELQAYRHN
# B35: SEQ ID NO 867 (designed binder)
# chain: MGSWIAFKDHLAIIKQRLEALGGSEAELARFEFEIAWFEWMLQYYKGKGNPEVEALRKEAAAIRDELQAYRHN
# B36: SEQ ID NO 874 (designed binder)
# chain: MGSWNNFKSSLASIKQVLEALGGSEAELAVFELQIAHFERELQYYKGKGNPEVEALRKEAAAIRDELQAYRHN
# B37: SEQ ID NO 837 (designed binder)
# chain: MGSWVYFKAHLAFIKWELEALGGSEAELANFESTIAEFEKYLQVYKGKGNPEVEALRKEAAAIRDELQAYRHN
# B38: SEQ ID NO 846 (designed binder)
# chain: MGSWYWFKYELAEIKWHLEALGGSEAELAHFEHSIAVFESQLQQYKGKGNPEVEALRKEAAAIRDELQAYRHN
# B39: SEQ ID NO 841 (designed binder)
# chain: MGSWYFFKSRLAYIKVYLEALGGSEAELAGFEWEIAHFEEWLQRYKGKGNPEVEALRKEAAAIRDELQAYRHN
# B40: SEQ ID NO 842 (designed binder)
# chain: MGSWYIFKSELAWIKWYLEALGGSEAELANFEVEIATFETWLQGYKGKGNPEVEALRKEAAAIRDELQAYRHN
# Molecular target: T1, AFP p26
# Assay: phage ELISA, A450 target/A450 IgG1-Fc
# Method in brief: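 Phage were rescued in 96-well format with VCSM13 helper phage from individual phagemid colonies picked from panning output. Plates were coated with 1.3 microg/ml goat anti-human IgG1-Fc antibody, then 5 nM recombinant human target or IgG1-Fc, then 50 microl phage diluted 5× in ELISA blocking buffer. Binding was detected with HRP-conjugated anti-M13 antibody at 450 nm. The ELISA ratio is target over IgG1-Fc absorbance, averaged across all screened wells holding that clone.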
row,Binder,ELISA_avg [ratio]
1,B1,17.8
2,B2,17.9
3,B3,23.4
4,B4,31.1
5,B5,18.6
6,B6,12.1
7,B7,23.3
8,B8,25.6
9,B9,19.8
10,B10,8.6
11,B11,15.6
12,B12,19.4
13,B13,20.5
14,B14,20.6
15,B15,30.4
16,B16,32.3
17,B17,30.8
18,B18,16.7
19,B19,30.3
20,B20,27.9

row,Binder,ELISA_avg [ratio]
1,B21,16.6
2,B22,11.6
3,B23,31.5
4,B24,14.2
5,B25,29.7
6,B26,22.1
7,B27,25.6
8,B28,18.9
9,B29,30.4
10,B30,17.4
11,B31,11.1
12,B32,24.1
13,B33,18.6
14,B34,20.1
15,B35,29.9
16,B36,24.1
17,B37,20.8
18,B38,21.5
19,B39,30.1
20,B40,29.6
